From patent US20240002498A1 (TENEOBIO, published 2024)

How the values were obtained:
[1] = target: T1, human Folate Receptor Alpha (FOLR1) on cells (human, UniProt P15328 25-234); assay: flow cytometry, CHO cells stably expressing human FOLR1
T1 construct: whole, on cells; Endogenous on IGROV-1, OVCAR-3, SKOV-3, HT-29 cells; transfected on CHO cells; the cell is named under assay; also called FRα; FRa

cyno FOLR1 on CHO cells = target: T2, cyno FOLR1 on CHO cells (cyno (Cynomolgus macaque), UniProt A0A2K5U044 25-234); assay: flow cytometry, CHO cells stably expressing cyno FOLR1
T2 construct: whole, on cells; also called cyFOLR1
T2 sequence (A0A2K5U044 entry or part of it): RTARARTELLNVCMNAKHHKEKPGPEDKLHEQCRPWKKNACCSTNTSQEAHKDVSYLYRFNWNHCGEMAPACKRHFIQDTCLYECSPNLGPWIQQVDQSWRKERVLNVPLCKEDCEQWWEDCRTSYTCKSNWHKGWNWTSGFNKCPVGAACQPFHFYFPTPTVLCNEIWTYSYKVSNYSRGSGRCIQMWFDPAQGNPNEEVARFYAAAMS

T1 sequence (P15328 25-234): as the sequence (A0A2K5U044 entry or part of it) above, with T2I, R4W, K37R, P146A, Y171H counted along it

Row | fold over background MFI [1] [fold over background] | fold over background MFI (cyno FOLR1 on CHO cells) [fold over background] | Binder
1 | 980 | 717 | anti-FOLR1 heavy chain antibody (HCAb, UniAb) clone ID 358676 (antibody, V domains shown, Heavy chain-only antibody (no light chain), F18 family) VH: EVQLVESGGGLVQPGGSLRLSCAASGFSFSSYSMKWVRQAPGKGLEWVSYISSSSDTIEYADSVKGRFTISRDNAKNSLYLQMNSLRAEDTAVYYCASVGLDFDYRGQGTLVTVSS
2 | 402 | 1.2 | anti-FOLR1 heavy chain antibody (HCAb, UniAb) clone ID 358393 (antibody, V domains shown, Heavy chain-only antibody (no light chain), F14 family) VH: EVQLVESGGGLVQPGGSLRLSCAASGFTFSSYSMNWARQAPGKGLEWVSYISSSSSSIYYADSVKGRFTISRDNAKNSLYLQMNSLRAEDTAVYYCARDVTSGIAAAGSAFNIRGQGTLVTVSS
3 | 1730 | 360 | anti-FOLR1 heavy chain antibody (HCAb, UniAb) clone ID 358396 (antibody, V domains shown, Heavy chain-only antibody (no light chain), F14 family) VH: EVQLVESGGGLVKPGGSLRLSCAASGFTFSSYSMNWVRQAPGKGLEWVSSISSSSSYIYYADSVKGRFTISRDNAKNSLYLQMNSLRAEDTAVYFCARDVTSGIAAAGSAFNIRGQGTLVTVSS
4 | 2150 | 2580 | anti-FOLR1 heavy chain antibody (HCAb, UniAb) clone ID 358462 (antibody, V domains shown, Heavy chain-only antibody (no light chain), F14 family) VH: EVQLVESGGGLVQPGGSLRLSCAASGFTFSSYSMNWVRQAPGKGLEWVSSISSGSSYIYYADSVKGRFTISRDNAKNSLYLQMNSLRAEDTAVYYCARDVTSGIAAAGSAFNIRGQGTLVTVSS
5 | 1870 | 2090 | anti-FOLR1 heavy chain antibody (HCAb, UniAb) clone ID 358456 (antibody, V domains shown, Heavy chain-only antibody (no light chain), F14 family) VH: EVQLVESGGGLVKPGGSLRLSCAASGFIFSSYSMNWVRQAPGKGLEWVSSISSGSSYIYYADSVKGRFTISRDNAKNSLYLQMNSLRAEDTAVYFCARDVTSGIAAAGSAFNIRGQGTLVTVSS
6 | 1500 | 2080 | anti-FOLR1 heavy chain antibody (HCAb, UniAb) clone ID 358418 (antibody, V domains shown, Heavy chain-only antibody (no light chain), F14 family) VH: EVQLVESGGGLVQPGGSLRLSCAASGFTFSSYSMNWVRQAPGKGLEWVSSISSGSSYIYYADSVKGRFTISRDNAKNSLYLQMNSLRAEDTALYYCARDVTSGIAAAGSAFNIRGQGTLVTVSS
7 | 2010 | 330 | anti-FOLR1 heavy chain antibody (HCAb, UniAb) clone ID 358399 (antibody, V domains shown, Heavy chain-only antibody (no light chain), F14 family) VH: EVQLVESGGGLVKPGGSLRLSCVASGFTFSSYSMNWVRQAPGKGLEWVSSISSSSSYIYYADSVKGRFTISRDNAKNSLYLQMNSLRAEDTAVYYCARDVTSGIAAAGSAFNIRGQGTLVTVSS
8 | 2100 | 6.4 | anti-FOLR1 heavy chain antibody (HCAb, UniAb) clone ID 358464 (antibody, V domains shown, Heavy chain-only antibody (no light chain), F14 family) VH: EVQLVESGGGLVQPGGSLRLSCAASGFTFSSYSMNWVRQAPGKGLEWVSYISSSSSTIYYADSVKGRFTISRDNAKNSLYLQMNSLRAEDTAVYYCARDVTSGIAAAGSAFNIRGQGTLVTVSS
9 | 277 | 331 | anti-FOLR1 heavy chain antibody (HCAb, UniAb) clone ID 358397 (antibody, V domains shown, Heavy chain-only antibody (no light chain), F14 family) VH: EVQLVESGGGLVKPRGSLRLSCEASGFTFSSYSMNWVRQAPGKGLEWVSSISSGSSYIYYADSVKGRFTISRDNAKNSLYLQMNSLRAEDTAVYYCARDVTSGIAAAGSAFNIRGQGTLVTVSS
10 | 1670 | 314 | anti-FOLR1 heavy chain antibody (HCAb, UniAb) clone ID 358468 (antibody, V domains shown, Heavy chain-only antibody (no light chain), F14 family) VH: EVQLVESGGGLVKPGGSLRLSCAASGFTFSSYSMNWVRQAPGKGLEWVSSISSSSSYIYYADSVKGRFTISRDNAKNSLYLQMNSLRAEDTAVYYCARDVTSGIAAAGSAFNIRGQGTLVTVSS
11 | 1760 | 2260 | anti-FOLR1 heavy chain antibody (HCAb, UniAb) clone ID 358420 (antibody, V domains shown, Heavy chain-only antibody (no light chain), F14 family) VH: EVQLVESGGGLVKPGGSLRLSCAASGFTFSSYSMNWVRQAPGKGLEWVSSISSGSSYIYYADSVKGRFTISRDNANNSLYLQMNSLRAEDTAVYFCARDVTSGIAAAGSAFNIRGQGTLVTVSS
12 | 2140 | 1200 | anti-FOLR1 heavy chain antibody (HCAb, UniAb) clone ID 358480 (antibody, V domains shown, Heavy chain-only antibody (no light chain), F14 family) VH: EVQLVESGGGLVKPGGSLRLSCAASGFTFSSYSMNWVRQAPGKGLEWVSSISSGSTYIYYADSVKGRFTISRDNAKNSLYLQMNSLRAEDTAVYYCARDVTSGIAAAGSAFNIRGQGTLVTVSS

More lines, now with the values behind:

Row | Binder | fold over background MFI [1] [fold over background] | fold over background MFI (cyno FOLR1 on CHO cells) [fold over background]
13 | anti-FOLR1 heavy chain antibody (HCAb, UniAb) clone ID 358590 (antibody, V domains shown, Heavy chain-only antibody (no light chain), F18 family) VH: EVQLVESGGGLVQPGGSLRLSCAASGFTFSSYSMNWVRQAPGKGLEWVSYISSSSDTIEYADSVKGRFTISRDNAKNSLYLQMNSLRDEDTAVYYCASVGLDFDYRGQGTLVTVSS | 1570 | 21.8
14 | anti-FOLR1 heavy chain antibody (HCAb, UniAb) clone ID 358655 (antibody, V domains shown, Heavy chain-only antibody (no light chain), F18 family) VH: EVQLVESGGGLVQPGGSLRLSCAASGFTFSSYSMKWVRQAPGKGLEWISYISGSSDTIEYADSVKGRFTISRDNAKNSLYLQMNGLRDEDTAVYYCASVGLDFDYRGQGTLVTVSS | 926 | 590
15 | anti-FOLR1 heavy chain antibody (HCAb, UniAb) clone ID 358596 (antibody, V domains shown, Heavy chain-only antibody (no light chain), F18 family) VH: EVQLVESGGGLVQPGGSLRLSCAASGFTFSSYSMKWVRQAPGKGLEWVSYIDSSSSIIEYADSVKGRFTISRDNAKNSLYLQMNSLRDEDTAVYYCASVGLDFDYRGQGTLVTVSS | 1960 | 1340
16 | anti-FOLR1 heavy chain antibody (HCAb, UniAb) clone ID 358647 (antibody, V domains shown, Heavy chain-only antibody (no light chain), F18 family) VH: EVQLVESGGGLVQPGGSLRLSCAASGFSFSSYSMNWVRQAPGKGLEWISYISGSSDTIEYADSVKGRFTISRDNAKNSLYLQMNSLRAEDTAVYYCASVGLDFDYRGQGTLVTVSS | 920 | 3
17 | anti-FOLR1 heavy chain antibody (HCAb, UniAb) clone ID 358624 (antibody, V domains shown, Heavy chain-only antibody (no light chain), F18 family) VH: EVQLVESGGGLVQPGGSLRLSCAASGFSFSSYSMKWVRQAPGKGLEWVSYISSSSDTIEYADSVKGRFTISRDNAKNSLYLQMNSLRDDDTAVYYCASVGLDFDYRGQGTLVTVSS | 1670 | 933
18 | anti-FOLR1 heavy chain antibody (HCAb, UniAb) clone ID 358664 (antibody, V domains shown, Heavy chain-only antibody (no light chain), F18 family) VH: EVQLVESGGGLVQPGGSLRLSCAASGFSFSSYSMKWVRQAPGKGLDWVSYISSSSDTIEYADSVKGRFTISRDNAKNSLYLQMNSLRDEDTAVYYCASVGLDFDYRGQGTLVTVSS | 1470 | 729
19 | anti-FOLR1 heavy chain antibody (HCAb, UniAb) clone ID 358656 (antibody, V domains shown, Heavy chain-only antibody (no light chain), F18 family) VH: EVQLVESGGGLVQPGGSLRLSCAASGFSFSSYSMNWVRQAPGKGLEWVSYISSSSDTIEYADSVKGRFTISRDNAKNSLYLQMNSLRDEDTAVYYCASVGLDFDYRGQGTLVTVSS | 1410 | 21.7
20 | anti-FOLR1 heavy chain antibody (HCAb, UniAb) clone ID 358608 (antibody, V domains shown, Heavy chain-only antibody (no light chain), F18 family) VH: EVQLVESGGGLVQPGGSLRLSCAASGFSFSSYSMKWVRQAPGKGLEWISYISGSSDTIEYADSVKGRFTISRDNAKNSLYLQMNSLRDEDTAVYYCASVGLDFDYRGQGTLVTVSS | 1280 | 535
21 | anti-FOLR1 heavy chain antibody (HCAb, UniAb) clone ID 358626 (antibody, V domains shown, Heavy chain-only antibody (no light chain), F18 family) VH: EVQLVESGGGLVKPGGSLRLSCAASGFSFSSYSMKWVRQAPGKGLEWVSYISSSSDTIEYADSVKGRFTISRDNAKNSLYLQMNSLRDDDTAVYYCASVGLDFDYRGQGTLVTVSS | 1710 | 1060
22 | anti-FOLR1 heavy chain antibody (HCAb, UniAb) clone ID 358452 (antibody, V domains shown, Heavy chain-only antibody (no light chain), F14 family) VH: EVQLVESGGGLVQPGGSLRLSCAASGFTFSSYSMNWVRQAPGKGLEWVASISSGSSDIYYADSVKGRFTISRDNAKNSLYLQMNSLRAEDTAVYYCARDVTSGIAAAGSAFNIRGQGTLVTVSS | 1840 | 1.7
23 | anti-FOLR1 heavy chain antibody (HCAb, UniAb) clone ID 358416 (antibody, V domains shown, Heavy chain-only antibody (no light chain), F14 family) VH: EVQLVESGGGLVKPGGSLRLSCAASGFTFSSYTMNWVRQAPGKGLEWVSSISSGSSYIYYADSVKGRFTISRDNAKNSLYLQMNSLRAEDTAVYYCARDVTSGIAAAGSAFNIRGQGTLVTVSS | 1870 | 1820
24 | anti-FOLR1 heavy chain antibody (HCAb, UniAb) clone ID 358478 (antibody, V domains shown, Heavy chain-only antibody (no light chain), F14 family) VH: EVQLVESGGGLIQPGGSLRLSCAASGFIFSSYSMNWVRQAPGKGLEWVSYISSSSSYIYYADSVKGRFTISRDNAKNSLYLQMNSLRAEDTAVYYCARDVTSGIAAAGSAFNIRGQGTLVTVSS | 427 | 1.1
25 | anti-FOLR1 heavy chain antibody (HCAb, UniAb) clone ID 358466 (antibody, V domains shown, Heavy chain-only antibody (no light chain), F14 family) VH: EVQLVESGGGLIQPGGSLRLSCAASGFTFSSYSMNWVRQAPGKGLEWVSSISSGSSYIYYADSVKGRFTISRDNAKNSLYLQMNSLRAEDTAVYYCARDVTSGIAAAGSAFNIRGQGTLVTVSS | 1600 | 2090
26 | anti-FOLR1 heavy chain antibody (HCAb, UniAb) clone ID 358441 (antibody, V domains shown, Heavy chain-only antibody (no light chain), F14 family) VH: EVQLVESGGGLVQPGGSLRLSCAASGFSFSSYSMNWVRQAPGKGLEWVSSISSGSSYIYYADSVKGRFTISRDNAKNSLYLQMNSLRGEDTAVYYCARDVTSGIAAAGSAFNIRGQGTLVTVSS | 1900 | 2300
27 | anti-FOLR1 heavy chain antibody (HCAb, UniAb) clone ID 358413 (antibody, V domains shown, Heavy chain-only antibody (no light chain), F14 family) VH: EVQLVESGGGLVQPGGSLRLSCAASGFSFSSYSMNWVRQAPGKGLEWVSSISSSSSYIYYADSVKGRFTISRDNSKNTLYLQMNSLRAEDTAVYYCARDVTSGIAAAGSAFNIRGQGTLVTVSS | 1810 | 497
28 | anti-FOLR1 heavy chain antibody (HCAb, UniAb) clone ID 358446 (antibody, V domains shown, Heavy chain-only antibody (no light chain), F14 family) VH: EVQLVESGGGLVKPGGSLRLSCAASGFIFSSYSMNWVRQAPGKGLEWVSSISSGSSYIYYADSVKGRFTISRDDAKNSLYLQMNSLRAEDTAVYFCARDVTSGIAAAGSAFNIRGQGTLVTVSS | 1270 | 1.5
29 | anti-FOLR1 heavy chain antibody (HCAb, UniAb) clone ID 358442 (antibody, V domains shown, Heavy chain-only antibody (no light chain), F14 family) VH: EVQLVESGGGLVKPGGSLRLSCAASGFTFSSYSMNWVRQAPGKGLEWVSYISSSSSYIYYADSVKGRFTISRDNAKNSLYLQMNSLRAEDTAVYYCARDVTSGIAAAGSAFNIRGQGTLVTVSS | 1600 | 1.2
